Results from paper PMC6945034, “A Genetic Screen To Identify Genes Influencing the Secondary Redox Couple NADPH/NADP^+ in the Yeast Saccharomyces cerevisiae” (G3: Genes|Genomes|Genetics, 2019).

Tests used:
[1] = substrate: O=CC(=O)O; assay: purified protein; format: biochemical, Saccharomyces cerevisiae; conditions: 0.25 mM NADPH, 50 mM potassium phosphate pH 7.4, 30 C, substrate 0-40 mM
[2] = substrate: O=C(O)C(=O)CO; assay: purified protein; format: biochemical, Saccharomyces cerevisiae; conditions: 0.25 mM NADPH, 50 mM potassium phosphate pH 7.4, 30 C, substrate 0-40 mM

B1: Gor1p (Saccharomyces cerevisiae S288C) (protein)
chain: MSKKPIVLKLGKDAFGDQAWGELEKIADVITIPESTTREQFLREVKDPQNKLSQVQVITRTARSVKNTGRFDEELALALPSSVVAVCHTGAGYDQIDVEPFKKRHIQVANVPDLVSNATADTHVFLLLGALRNFGIGNRRLIEGNWPEAGPACGSPFGYDPEGKTVGILGLGRIGRCILERLKPFGFENFIYHNRHQLPSEEEHGCEYVGFEEFLKRSDIVSVNVPLNHNTHHLINAETIEKMKDGVVIVNTARGAVIDEQAMTDALRSGKIRSAGLDVFEYEPKISKELLSMSQVLGLPHMGTHSVETRKKMEELVVENAKNVILTGKVLTIVPELQNEDWPNESKPLV
notes: C-terminal 6xHis tag, tag cut not mentioned, expressed in E. coli BL21(DE3), Ni-NTA purified
Km [1]: 8.4 mM
Km [2]: 22.7 mM
